Assay results: the supplement of paper PMC10567573

B1: IKZF1 (parent)
chain: YHSQDRYEFSSHITRGEHRFHMS

Variants of: B1
Test: protein stability index of a GFP-peptide fusion (GPS, HEK-293T) (PSI 1-6); higher = more stable
Details: c terminus: native
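Note: lentivirally expressed fusions sorted by FACS into six bins by GFP to DsRed ratio, PSI derived from sequencing read proportions per bin multiplied by bin number.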

Row | Variant | protein stability index
1 | YHSQDRYEFSSHITEGEHRFHMS [R15E] | 1.81
2 | YHSQDRYEFSSHITIGEHRFHMS [R15I] | 3.49
3 | YHSQDRYEFSSHITMGEHRFHMS [R15M] | 1.47
4 | YHSQDRYEFSSHITNGEHRFHMS [R15N] | 1.99
5 | YHSQDRYEFSSHITVGEHRFHMS [R15V] | 1.82
6 | YHSQDRYEFSSHITPGEHRFHMS [R15P] | 1.42
7 | YHSQDRYEFSSHITWGEHRFHMS [R15W] | 1.82
8 | YHSQDRYEFSSHITTGEHRFHMS [R15T] | 2.9
9 | YHSQDRYEFSSHITYGEHRFHMS [R15Y] | 2.29
10 | YHSQDRHEFSSHITRGEHRFHMS [Y7H] | 1.49
11 | YHSQDRSEFSSHITRGEHRFHMS [Y7S] | 2.2
12 | YHSQDRGEFSSHITRGEHRFHMS [Y7G] | 2.44
13 | YHSQDRIEFSSHITRGEHRFHMS [Y7I] | 2.27
14 | YHSQDRWEFSSHITRGEHRFHMS [Y7W] | 2.46
15 | YHSQDRYEFSSYITRGEHRFHMS [H12Y] | 1.98
16 | YHSQDRYEFSSDITRGEHRFHMS [H12D] | 1.88
17 | YHSQDRYEFSSFITRGEHRFHMS [H12F] | 2.04
18 | YHSQDRYEFSSWITRGEHRFHMS [H12W] | 2.85
19 | YHSQDRYEFSSGITRGEHRFHMS [H12G] | 3.61
20 | YHSQDRYEFSSQITRGEHRFHMS [H12Q] | 2.83
21 | YHSQDRYEFSSEITRGEHRFHMS [H12E] | 2.47
22 | YHSQDRYEFSSHITRGEHRFTMS [H21T] | 2.04
23 | YHSQDRYEFSSHITRGEHRFNMS [H21N] | 2.27
24 | YHSQDRYEFSSHITRGEHRFLMS [H21L] | 2.13
25 | YHSQDRYEFSSHITRGEHRFCMS [H21C] | 1.69

Row | Variant | protein stability index
26 | YHSQDRYEPSSHITRGEHRFHMS [F9P] | 1.73
27 | YHSQDRYEESSHITRGEHRFHMS [F9E] | 1.97
28 | YHSQDRYECSSHITRGEHRFHMS [F9C] | 2.54
29 | YHSQDRYEYSSHITRGEHRFHMS [F9Y] | 1.95
30 | YHSQDRYENSSHITRGEHRFHMS [F9N] | 1.8
31 | YHSQDRYEGSSHITRGEHRFHMS [F9G] | 1.97
32 | YHSQDRYEQSSHITRGEHRFHMS [F9Q] | 1.17
33 | YHSQDRYERSSHITRGEHRFHMS [F9R] | 1.67
34 | YHSQDRYEASSHITRGEHRFHMS [F9A] | 2.02
35 | YHSQDRYEVSSHITRGEHRFHMS [F9V] | 2.65
36 | YHSQDRYETSSHITRGEHRFHMS [F9T] | 1.49
37 | YHSQCRYEFSSHITRGEHRFHMS [D5C] | 3.34
38 | YHSQNRYEFSSHITRGEHRFHMS [D5N] | 1.84
39 | YHSQTRYEFSSHITRGEHRFHMS [D5T] | 2.18
40 | YHSQIRYEFSSHITRGEHRFHMS [D5I] | 2.41
41 | YHSQMRYEFSSHITRGEHRFHMS [D5M] | 3.27
42 | YHSQGRYEFSSHITRGEHRFHMS [D5G] | 2.85
43 | YHSQWRYEFSSHITRGEHRFHMS [D5W] | 3.3
44 | YHSQHRYEFSSHITRGEHRFHMS [D5H] | 2.74
45 | YHSQDRYEFISHITRGEHRFHMS [S10I] | 1.92
46 | YHSQDRYEFCSHITRGEHRFHMS [S10C] | 1.56
47 | YHSQDRYEFASHITRGEHRFHMS [S10A] | 1.4
48 | YHSQDRYEFNSHITRGEHRFHMS [S10N] | 1.72
49 | YHSQDRYEFRSHITRGEHRFHMS [S10R] | 1.9
50 | YHSQDRYEFTSHITRGEHRFHMS [S10T] | 1.62

Row | Variant | protein stability index
51 | YHSQDRYEFMSHITRGEHRFHMS [S10M] | 1.6
52 | YHSQDRYEFWSHITRGEHRFHMS [S10W] | 3.17
53 | YHSQDRYEFLSHITRGEHRFHMS [S10L] | 1.66
54 | YKSQDRYEFSSHITRGEHRFHMS [H2K] | 2.01
55 | YGSQDRYEFSSHITRGEHRFHMS [H2G] | 3.11
56 | YASQDRYEFSSHITRGEHRFHMS [H2A] | 2.5
57 | YDSQDRYEFSSHITRGEHRFHMS [H2D] | 3.76
58 | YTSQDRYEFSSHITRGEHRFHMS [H2T] | 3.16
59 | YRSQDRYEFSSHITRGEHRFHMS [H2R] | 3.37
60 | YISQDRYEFSSHITRGEHRFHMS [H2I] | 1.94
61 | YHRQDRYEFSSHITRGEHRFHMS [S3R] | 2.47
62 | YHQQDRYEFSSHITRGEHRFHMS [S3Q] | 2.54
63 | YHGQDRYEFSSHITRGEHRFHMS [S3G] | 2
64 | YHTQDRYEFSSHITRGEHRFHMS [S3T] | 2.13
65 | YHKQDRYEFSSHITRGEHRFHMS [S3K] | 2.33
66 | YHEQDRYEFSSHITRGEHRFHMS [S3E] | 2.56
67 | YHAQDRYEFSSHITRGEHRFHMS [S3A] | 2.66
68 | YHIQDRYEFSSHITRGEHRFHMS [S3I] | 2.73
69 | YHNQDRYEFSSHITRGEHRFHMS [S3N] | 1.61
70 | YHCQDRYEFSSHITRGEHRFHMS [S3C] | 1.59
71 | YHSRDRYEFSSHITRGEHRFHMS [Q4R] | 1.94
72 | YHSSDRYEFSSHITRGEHRFHMS [Q4S] | 2.42
73 | YHSYDRYEFSSHITRGEHRFHMS [Q4Y] | 1.77
74 | YHSADRYEFSSHITRGEHRFHMS [Q4A] | 2.13
75 | YHSNDRYEFSSHITRGEHRFHMS [Q4N] | 1.89

Row | Variant | protein stability index
76 | YHSGDRYEFSSHITRGEHRFHMS [Q4G] | 2.3
77 | YHSPDRYEFSSHITRGEHRFHMS [Q4P] | 1.94
78 | YHSQDRYEFSSHIERGEHRFHMS [T14E] | 1.68
79 | YHSQDRYEFSSHIPRGEHRFHMS [T14P] | 1.52
80 | YHSQDRYEFSSHIHRGEHRFHMS [T14H] | 1.99
81 | YHSQDRYEFSSHIRRGEHRFHMS [T14R] | 2.07
82 | YHSQDRYEFSSHIKRGEHRFHMS [T14K] | 1.49
83 | YHSQDRYEFSSHIQRGEHRFHMS [T14Q] | 1.34
84 | YHSQDRYEFSSHIIRGEHRFHMS [T14I] | 2.15
85 | YHSQDRYEFSSHILRGEHRFHMS [T14L] | 2.23
86 | YHSQDRYEFSSHIYRGEHRFHMS [T14Y] | 1.37
87 | YHSQDRYEFSSHIARGEHRFHMS [T14A] | 2.38
88 | YHSQDRYEFSSHITRGEHRFHML [S23L] | 1.68
89 | YHSQDRYEFSSHITRGEHRFHMM [S23M] | 1.62
90 | YHSQDRYEFSSHITRGEHRFHMV [S23V] | 1.97
91 | YHSQDRYEFSSHITRGEHRFHMT [S23T] | 2.02
92 | YHSQDRYEFSSHITRGEHRFHMG [S23G] | 2
93 | YHSQDRYEFSSHITRGEHRFHMD [S23D] | 1.5
94 | YHSQDRYEFSSHITRGEHRFHMW [S23W] | 2.5
95 | YHSQDRYEFSSHITRGEHRFHMC [S23C] | 1.94
96 | YHSQDRYEFSSHITRGEHRFHMH [S23H] | 2.23
97 | YHSQDRYEFSSHITRGEHRFHME [S23E] | 1.5
